Laboratory results: patent publication US20040175379A1 (AbbVie / Abbott, published 2004)

T1: biotinylated EpoR (Abbott CHO cell derived ref.#RB69084:4) (UniProt P19235 25-250, limits assumed, biotinylated with biotin-NHS (sites not given))
T1 construct: also called biotin EpoR; biotin-EpoR
T1 sequence (looked up): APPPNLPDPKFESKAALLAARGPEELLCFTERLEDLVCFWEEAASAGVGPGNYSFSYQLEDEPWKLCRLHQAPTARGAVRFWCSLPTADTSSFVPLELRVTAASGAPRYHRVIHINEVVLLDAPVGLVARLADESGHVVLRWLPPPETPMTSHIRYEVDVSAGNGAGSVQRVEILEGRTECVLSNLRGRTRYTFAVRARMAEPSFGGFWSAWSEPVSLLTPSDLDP

T2: soluble human EPO receptor (human, UniProt P19235 25-250, limits assumed)
T2 construct: Only called 'soluble'
T2 sequence (looked up): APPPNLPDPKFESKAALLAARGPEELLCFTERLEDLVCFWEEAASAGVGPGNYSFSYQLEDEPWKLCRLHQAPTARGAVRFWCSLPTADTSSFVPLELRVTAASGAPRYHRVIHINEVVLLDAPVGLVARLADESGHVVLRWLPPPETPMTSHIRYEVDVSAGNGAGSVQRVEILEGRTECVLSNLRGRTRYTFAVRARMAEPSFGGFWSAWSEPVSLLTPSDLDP

B1: human anti-EPO-R antibody expressed by the cell line designated ABT2-SCX-254 (antibody, human IgG2, V domains shown)
VH: QVQLVESGGGVVQPGRSLRLSCAASGFTFSSYGMHWVRQAPGKGLEWVAVIWFDGNNKFYADSVKGRFTISRDNSKNTLYLQMNSLRVEDTAVYYCARGGSYWDYWGQGTLVTVSS
VL: DIVMTQTPLFSFVMIGQPASISCRSRQSLVHSDGNTYLNWLQQRPGQPPRLLIYKTSNRFSGVPDRFSGSGAGTDFTLKISRVEAEDVGVYYCMQATQFPITFGQGTRLEIK
notes: also called Ab254
B2: human anti-EPO-R antibody expressed by the cell line designated ABT2-SCX-054 (antibody, V domains shown)
VH: QVQLVESGGGVVQPGRSLRLSCAASGFTFSKYGMHWVRQAPGKGLEWVAVLWYDGSNKYYADSVKGRFTISRDNSKNTLYLQMNSLRAEDTAVYYCARGPYYFDYWGQGTLVTVSS
VL: not shown
notes: also called ABT2-SCX-54; Ab54
B3: Ab12 (human anti-EPO-R antibody expressed by the cell line designated ABT2-SCX-012) (antibody, human IgG2, V domains shown)
VH: QVQLQESGPGLVKPSETLSLTCTVSGASISSYYWSWIRQPPGKGLEWIGYIYYSGSTNYNPSLKSRVTISVDTSKNQFSLKLRSVTAADTAVYYCARERLGIGDYWGQGTLVTVSS
VL: DIQLTQSPSSLSASVGDRVTITCRASQGIRNDLGWYQQKPGKAPKRLIYAASSLQSGVPSRFSGSGSGTEFTLTISSLQPEDFATYYCLQHNTYPPTFGQGTKVEIK
notes: also called AB-ABT2-XG2-012; ABT2-XG2-012
B4: human anti-EPO-R antibody expressed by the cell line designated ABT2-SCX-060 (antibody, human IgG2, V domains shown)
VH: QVQLVESGGGVVQPGRSLRLSCAASGFTFSSYGMHWVRQAPGKGLEWVAVISYDGSNKYYADSVKGRFTISRDNSKNTLYLQMNSLRVEDTAVYYCARDHGGRYVYDYGMDVWGQGTTVTVSS
VL: DIQMTQSPSSVSASVGDRVSITCRASQGISSWLAWYQQKPGKAPTLLIYAASSLQRGVPSRFSGSGSGTDFTLTISSLQPEDFATYFCQQANSFPFTFGPGTKVDIK
notes: also called Ab60
B5: human anti-EPO-R antibody expressed by the cell line designated ABT2-SCX-145 (antibody, human IgG2, V domains shown)
VH: QVQLVESGGGVVQPGRSLRLSCAASGFTFSSYGMHWVRQAPGKGLEWVAVISYDGSNKYYADSVKGRFTISRDNSKNTLYLQMNSLRVEDTAVYYCARDHGGRYVYDYGMDVWGQGTTVTVSS
VL: DIQMTQSPSSVSASVGDRVSITCRASQGIGSWLAWYQQKPGQAPTLLIYAASSLQRGVPSRFSGSGSGTDFTLTINSLQPEDFATYFCQQANSFPFTFGPGTKVDVK
notes: also called Ab145
B6: human anti-EPO-R antibody expressed by the cell line designated ABT2-SCX-022 (antibody, human IgG2, V domains shown)
VH: QVQLVESGGGVVQPGRSLRLSCAASGFTFSSYGMHWVRQAPGKGLEWVVVISYDGSNKYYADSVKGRFTISRDNSKNTLYLQMNSLRVEDTAVYYCARDHGGRYVYDYGMDVWGQGTTVTVSS
VL: DIQMTQSPSSVSASVGDRVSITCRASQGISSWLAWYQQKPGKAPTLLIYAASSLQRGVPSRFSGSGSGTDFTLTISSLQPEDFATYFCQQANSFPFTFGPGTKVDIK
notes: also called Ab22
B7: human anti-EPO-R antibody expressed by the cell line designated ABT2-SCX-003 (antibody, human IgG2, V domains shown)
VH: QVQLVESGGGVVQPGRSLRLSCAASGFTFSSYGMHWVRQAPGKGLEWVAVISYDGSNKYYADSVKGRFTISRDNSKNTLYLQMNSLRVEDTAVYYCARDHGGRYVYDYGMDVWGQGTTVTVSS
VL: DIQMTQSPSSVSASVGDRVSITCRASQGISSWLVWYQQKPGKAPALLIYAASSLQRGVPSRFSGSGSGTDFTLTISSLQPEDFATYFCQQANSFPFTFGPGTKVDIK
notes: also called Ab3
B8: human anti-EPO-R antibody expressed by the cell line designated ABT2-SCX-135 (antibody, human IgG2, V domains shown)
VH: QVQLVESGGGVVQPGRSLRLSCAASGFTFSSYGMHWVRQAPGKGLEWVAVISYDGSNKYYADSVKGRFTISRDNSKNTLYLQMNSLRVEDTAVYYCARDHGGRYVYDYGMDVWGQGTTVTVSS
VL: DIQMTQSPSSVSTSVGDRVSITCRASQGIGSWLAWYQQKPGQAPTLLIYAASSLQRGVPSRFSGSGSGTDFTLTINSLQPEDFATYFCQQANSFPFTFGPGTKVDVK
notes: also called Ab135
B9: human anti-EPO-R antibody expressed by the cell line designated ABT2-SCX-267 (antibody, human IgG2, V domains shown)
VH: QVQLVESGGGVVQPGRSLRLSCAASGFTFSSYGMHWVRQAPGKGLEWVAVISYDGSNKYYADSVKGRFTISRDNSKNTLYLQMNSLRVEDTAVYYCAKDHGGRYVYDYGMDVWGQGTTVTVSS
VL: DIQMTQSPSSVSASVGDRVSITCRASQGIGSWLAWYQQKPGQAPTLLIYAASSLQRGVPSRFSGSGSGTDFTLTINSLQPEDFATYFCQQANSFPFTFGPGTKVDVK
notes: also called Ab267
B10: human anti-EPO-R antibody expressed by the cell line designated ABT2-SCX-102 (antibody, human IgG2, V domains shown)
VH: QVQLVESGGGVVQPGRSLRLSCAASGFTFSSYGMHWVRQAPGKGLEWVAVISYDGSNKYYADSVKGRFTISRDNSKNTLYLQMNSLRVEDTAVYYCARDHGGRYVYDYGMDVWGQGTTVTVSS
VL: DIQMTQSPSSVSASVGDRVSITCRASQGISSWLAWYQQKPGKAPKRLIYAASSLQRGVPSRFSGSGSGTDFTLTISSLQPEDFATYFCQQANSFPFTFGPGTKVDIK
notes: also called Ab102
B11: Ab198 (human anti-EPO-R antibody expressed by the cell line designated ABT2-SCX-198) (antibody, human IgG2, V domains shown)
VH: QVQLVESGGGVVQPGRSLRLSCVASGFTFSSYGMHWVRQAPGKGLEWVAVISYDGSNKYYADSVKGRFTISRDNSKNTLYLQMNSLRVEDTAVYYCARDHGGRYVYDYGMDVWGQGTTVTVSS
VL: DIQMTQSPSSVSASIGDRVSITCRASQGISSWLAWYQQKPGKAPTLLIYAASTLQRGVPSRFSGSGSGTDFTLTISSLQPEDFATYFCQQANSFPFTFGPGTKVDIK

Biological target: T1, biotinylated EpoR (Abbott CHO cell …)
Assay: ELISA, biotin-EpoR on streptavidin plate, HEK 293 supernatant titrated 1:2
Procedure: The ELISA for antigen specific antibody secretion was performed as follows. Control plates were coated with […] Goat anti-human IgG H+L O/N. For the binding plates, biotin-EpoR (0.7 mcg/mL) was coated onto streptavadin 96 well plates (Sigma, St Louis, Mo.) for one hour at room temperature. The plates were washed five times with dH₂O. Recombinant antibodies were titrated 1:2 for 7 wells from the undiluted minilipofection supernatant. The plates were washed five times with dH₂O. A goat anti-human IgG Fc-specific HRP-conjugated antibody was added at a final concentration of 1 ug/mL for 1 hour at RT for the secretion and the binding ELISA. The plates were washed five times with dH₂O. The plates were developed with the addition of TMB chromogenic substrate (KPL, Gaithersburg, Md.) for 30 minutes and the ELISA was stopped by the addition of 1 M phosphoric acid. Each ELISA plate was analyzed to determine the optical density of each well at 450 nm.

First: B1
Second: B2
The “Binding (dilution of the supernatant in ELISA)” value (“Binding” for short) of the first is lower: 8 1:n dilution of supernatant for the first, > 64 1:n dilution of supernatant for the second.

B3 and B4 cannot be ordered by “Binding” value: > 64 1:n dilution of supernatant for the first, > 64 1:n dilution of supernatant for the second.

B5 and B6 cannot be ordered by “Binding” value: > 64 1:n dilution of supernatant for the first, > 64 1:n dilution of supernatant for the second.

Compared with B7, B8 is lower in “Binding” value: > 64 1:n dilution of supernatant for the first, 4 1:n dilution of supernatant for the second.

B9 and B10 cannot be ordered by “Binding” value: > 64 1:n dilution of supernatant for the first, > 64 1:n dilution of supernatant for the second.

With B11 the “Binding” value was > 64 1:n dilution of supernatant.

Biological target: T2, soluble human EPO receptor
Assay: SPR (Biacore 2000), antibody immobilised on the chip, soluble receptor 10-200 nM injected
Procedure: Immobilizations of antibody were performed using the default immobilization program in the Biacore software package. Antibodies were diluted to 10 ug/mL in the supplied acetate buffers to prescreen for the appropriate pH at which to conduct the immobilizations. For immobilizations, antibodies were diluted into the appropriate acetate buffer (10 mM acetate pH 4.0) and coupled directly to the chip surface using standard EDC chemistry at three different protein levels (500, 1000, and 1500 RU). The fourth flow cell was mock coupled with EDC to cap the carboxyl groups and provide a background surface as a negative control.
Binding studies were performed by successive injections of varying concentrations of soluble human EPO receptor over the chip surface (500 RU immobilized protein). […]
Data were fit to the models available in the BiaEvaluation 3.0.2 software package (Biacore). […] Dissociation constants were calculated directly from fitting to the Langmuir binding model. For the bivalent analyte model, the dissociation constants were calculated indirectly using the calculated values for the kinetic dissociation and kinetic association constants, kd and kₐ.

B3 and B11 are within 1.5-fold of each other in Kd: 17.5 nM for the first, 13.9 nM for the second.
